Laboratory results taken from paper PMC10319729.

Assays:
[1] = molecular target: LGR4 (HA-LGR4) over-expressed on HEK293 cells (UniProt Q9BXB1); experiment: whole-cell binding, fluorescence plate reader; Fc-tagged ligand in 3x serial dilution on cells in 96-well plates, on ice 1 h, washed, fixed with 4.2% paraformaldehyde, Alexa555-labeled anti-human IgG antibody; half-maximum binding (KD) from a three-parameter dose-response fit
[2] = molecular target: LGR5ΔCT (human LGR5 without the cytoplasmic C-terminal tail) on HEK293 cells (human) (UniProt O75473); experiment: as above
[3] = molecular target: RNF43-ECDTM (RNF43 extracellular domain anchored by its transmembrane domain) on HEK293T cells (UniProt Q68DV7); experiment: as above
Sequence of RNF43-ECDTM (RNF43 extracellular domain anchored by its transmembrane domain) on HEK293T cells (Q68DV7 24-218): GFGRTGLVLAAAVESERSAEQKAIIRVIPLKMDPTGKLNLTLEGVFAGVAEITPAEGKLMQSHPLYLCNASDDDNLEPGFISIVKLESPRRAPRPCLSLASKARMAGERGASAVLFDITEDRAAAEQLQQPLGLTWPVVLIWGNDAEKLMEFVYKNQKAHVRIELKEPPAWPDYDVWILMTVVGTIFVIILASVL

[4] = molecular target: ZNRF3ΔRING (ZNRF3 with deletion of the RING domain) on HEK293T cells (UniProt Q9ULT6); experiment: as above
[5] = molecular target: LGR5ΔCT (human LGR5 without the cytoplasmic C-terminal tail) on HEK293 cells (human) (UniProt O75473); experiment: whole-cell binding, fluorescence plate reader; His-tagged ligand in 3x serial dilution on cells in 96-well plates, on ice 1 h, washed, fixed with 4.2% paraformaldehyde, Alexa488-labeled anti-His antibody; half-maximum binding (KD) from a three-parameter dose-response fit

| Kd [1] [nM] | Kd [2] [nM] | Kd [3] [nM] | Kd [4] [nM] | Kd [5] [nM] | Substance |
| --- | --- | --- | --- | --- | --- |
| > 50 | 1.4 |  |  |  | R2Fu-mFc (RSPO2 furin domain fused to monomeric human IgG4-Fc, monovalent) (from UniProt Q6UXX9 37-143) (Fc fusion) |
|  |  |  |  | 2.6 | R2FuTSP-His (RSPO2 furin domain with TSP domain, His-tagged) (from UniProt Q6UXX9 22-205) (domain or fragment) |
|  |  |  |  | 1.9 | RSPO2 furin domain with a C-terminal His tag (R2Fu-His) (from UniProt Q6UXX9 37-143) (domain or fragment) |

Further lines, the substance ahead of its results:

| Substance | Kd [1] [nM] | Kd [2] [nM] | Kd [3] [nM] | Kd [4] [nM] | Kd [5] [nM] |
| --- | --- | --- | --- | --- | --- |
| R2Fu-bFc (RSPO2 furin domain fused to wild-type IgG1-Fc, bivalent) (from UniProt Q6UXX9 37-143) (Fc fusion) | 1.6 | 0.8 |  |  |  |
| R2Fu-Q70R-bFc (bivalent RSPO2 furin domain with Gln70 to Arg) (from UniProt Q6UXX9 22-243) (Fc fusion) |  |  | 6.3 | 2.9 |  |
| R2Fu-Q70R-mFc (monovalent RSPO2 furin domain with Gln70 to Arg) (from UniProt Q6UXX9 22-243) (Fc fusion) |  |  | > 100 | > 100 |  |
